The target in series [1] is T1, MLEΔG (UniProt P24785 1-1158). Put plainly: fluorescence polarization.
Another series addresses MLEΔGin (UniProt P24785 1-1158, E195C;S633C). As to the kind of experiment: fluorescence polarization.
Series [2] has as its target T1, MLEΔG. Put plainly: cryo-EM.

B1: SL7 (SL7mod-UUC) RNA (structured_RNA)
RNA: GUGUAAAAUGUUGCUAGCAAAUAUAUAUGCUAGUAACGUUUUACGCCCUCUUUCUUUCUU
Regarding B1, in the series with MLEΔG [1], the “apparent K (half saturation)” value worked out at 16 nM.

B2: UUC RNA (fluorescein) (ssRNA)
RNA: CCUCUUUCUUUC
Regarding B2, the figures for the half-maximal inhibitory concentration (IC50) in the series with MLEΔG [1] and with MLEΔGin were 302 ± 43 nM and 280 ± 19 nM, respectively.

B3: U10 RNA (ssRNA)
RNA: UUUUUUUUUU
On to B3, for which the binding result with MLEΔG [2] is “binds”.

The values above are taken from article doi:10.1101/2022.11.11.516098.
